We go through eleven molecules from patent US20120053118A1.

Like-named read-outs stand apart in the source and are kept apart here. Bridge positions count the residues as written; N and C are the ends. Ends that are not written are not given here.

As a reminder, the IC50 is the concentration at which inhibition is half-maximal. Low readings indicate higher potency, high ones lower potency.

In test [1] the target is amylin receptors (membrane-bound, rat basal forebrain membranes containing the nucleus accumbens and surrounding regions) (rat). Put plainly: competition with 125I Bolton-Hunter rat amylin on rat basal forebrain membranes.
Test [2] shares this target. The description is as above. This is another data set of the same source.

The molecule human amylin (hAmylin) (ligand) returned an IC50 in test [1] of 50000 nM. In the case of CNTATCATQRLANFLVHSSNNFGPILPSTNVGSNTY [des-^1Lys^25, 28Pro-h-Amylin], the IC50 in test [2] was 0.085 nM.

With CNTATCATQRLANFLVHSSNNFGPILPPTNVGSNTY [des-^1Lys^25, 28, 29Pro-h-Amylin], in test [2], the IC50 is 0.014 nM.

In the case of CNTATCATQRLANFLVRSSNNFGPILPPTNVGSNTY [des-^1Lys^18Arg^25, 28, 29Pro-h-Amylin], the IC50 in test [2] was found to be 0.021 nM. Still for that read-out and setting: the value for CNTATCATQRLANFLVRSSNNFGPILPSTNVGSNTY [des-^1Lys^18Arg^25, 28Pro-h-Amylin] was 0.082 nM; that for KCNTATCATQRLANFLVHSSNNFGPILPSTNVGSNTY [^25, 28Pro-h-Amylin] was 0.026 nM; that for KCNTATCATQRLANFLVHSSNNFGPVLPPTNVGSNTY [^25Pro^26Val^28, 29Pro-h-Amylin] was 0.018 nM. Same read-out and setting: the value for KDNTATKATQRLANFLVHSSNNFGAILSSTNVGSNTY (lactam 2-7; not fully specified (C-terminus)) [^2, 7Cyclo-[^2Asp,^7Lys]-h-Amylin] was 0.31 nM; that for KCNTATCATQRLANFLVRSSNNFGPILPPTNVGSNTY [^18Arg^25, 28, 29Pro-h-Amylin] was 0.021 nM; that for KCNTATCATQRLANFLVHSSNNFGPILPPTNVGSNTY (disulfide 2-7; not fully specified (C-terminus)) [^25, 28, 29Pro-h-Amylin] was 0.01 nM. The same measure, in the same setting: with KCNTATCATQRLANFLVRSSNNFGPILPSTNVGSNTY [^18Arg^25, 28Pro-h-Amylin] the figure was 0.032 nM.
